According to PMC5751952:

Target: wild-type ElDyP lacking the His6 tag (subtilisin A-treated, for crystallization) (Enterobacter lignolyticus)
Test: crystal structure

- stoichiometry N: 2
Substance: wild-type ElDyP lacking the His6 tag (subtilisin A-treated, for crystallization) (enzyme)
